Measurements reported in publication PMC11997057, “PIN1-SUMO2/3 motif suppresses excessive RNF168 chromatin accumulation and ubiquitin signaling to promote IR resistance” (Nature Communications, 2025).
Non-standard residues stand in square brackets, D forms with d. No end group written: not given here. pT = C[C@@H](OP(=O)(O)O)[C@H](N)C(=O)O

Tests used:
PIN1 WW domain = PIN1 WW domain (UniProt Q13526); assay: GST pull-down from cell lysate; conditions: reference: myc-RNF168 wild type; sites T208
PIN1 = PIN1 (UniProt Q13526); assay: native mass spectrometry, 1:5 protein:peptide; conditions: reference: unphosphorylated peptide; sites T208
[1] = molecular target: T1, full-length PIN1 (recombinant, tag cleaved) (UniProt Q13526 1-163); assay: native MS; PIN1 2.5 uM and peptide 12.5 uM (1:5 molar ratio) incubated on ice in 100 mM ammonium acetate pH 6.8; nanoelectrospray, positive mode; conditions: both partners purified
T1 construct: peptidyl-prolyl isomerase PIN1, full length; also called recombinant PIN1; tag-cleaved PIN1; source: E. coli Rosetta 2(DE3) pLysS, auto-induction, purified (IMAC), tag cleaved with TEV protease; not shown: His6, N-terminal, cleaved

Row | Molecule | binding result [1] | also measured
1 | RNF168 (from UniProt Q8IYW5) T208A | – | binding against the reference (PIN1 WW domain): weaker
2 | RNF168 204-210 (from UniProt Q8IYW5) pT208 peptide | – | binding against the reference (PIN1): stronger
3 | SDPV[pT]PK (end groups not known; also called phospho-RNF168 peptide; pT208-RNF168 peptide; source: synthetic peptide, bought: GenScript Biotech) [phosphorylated RNF168 peptide S204-K210, SDPV(pT)PK] | binds | –
4 | SDPVTPK (end groups not known; also called non-phosphorylated peptide of the T208 motif; source: synthetic peptide, bought: GenScript Biotech) [unphosphorylated RNF168 peptide S204-K210] | binds | –
